T1: Dnmt3a K44me0 peptide 39-50 (Mus musculus, UniProt O88508)
T1 chain: SATARKVGRPGR

B1: G9a SET (protein)
chain: not shown
B2: GLP SET (protein)
chain: not shown

Biological target: T1, Dnmt3a K44me0 peptide 39-50

Binder | Kd [µM]
B1 | ~5
B2 | ~5

From article PMC3286832 (2011)
